# B1: NRC3_wobSeed25_DR1_A5T_o1 (dsDNA)
# DNA 1: GCCATACTAGGTCAAAGGTCAAAGTCGAGCCAACCAGCGATTGACAGCGTAGAATGAAGG
# DNA 2: CCTTCATTCTACGCTGTCAATCGCTGGTTGGCTCGACTTTGACCTTTGACCTAGTATGGC
# B2: NRC3_wobSeed25_DR1_A6T_o1 (dsDNA)
# DNA 1: GCCAATCTAGGTCAAAGGTCAAAGTCGAGCCAACCAGCGATTGACAGCGTAGAATGAAGG
# DNA 2: CCTTCATTCTACGCTGTCAATCGCTGGTTGGCTCGACTTTGACCTTTGACCTAGATTGGC
# B3: NRC3_wobSeed25_DR1_G24A_o1 (dsDNA)
# DNA 1: GCCAAACTAGGTCAAAGGTCAAAATCGAGCCAACCAGCGATTGACAGCGTAGAATGAAGG
# DNA 2: CCTTCATTCTACGCTGTCAATCGCTGGTTGGCTCGATTTTGACCTTTGACCTAGTTTGGC
# B4: NRC3_wobSeed29_DR1_G24A_o1 (dsDNA)
# DNA 1: GCGCTTACGGGTCAAAGGTTATAACATGAATAGAATGCGATTGACAGCGTAGAATGAAGG
# DNA 2: CCTTCATTCTACGCTGTCAATCGCATTCTATTCATGTTATAACCTTTGACCCGTAAGCGC
# B5: NRC3_wobSeed29_DR1_C4A_o1 (dsDNA)
# DNA 1: GCGATTACGGGTCAAAGGTTATAGCATGAATAGAATGCGATTGACAGCGTAGAATGAAGG
# DNA 2: CCTTCATTCTACGCTGTCAATCGCATTCTATTCATGCTATAACCTTTGACCCGTAATCGC
# B6: NRC3_wobSeed97_DR4_G27T_o1 (dsDNA)
# DNA 1: GCCAAACTAGGTCACGAAAGGTCAAATTCGAATGACGCGATTGACAGCGTAGAATGAAGG
# DNA 2: CCTTCATTCTACGCTGTCAATCGCGTCATTCGAATTTGACCTTTCGTGACCTAGTTTGGC
# B7: NRC3_wobSeed28_DR1_T26C_o1 (dsDNA)
# DNA 1: GCCCTACTGGGCCAAAGGTCATTGACTCCAATGCTCGCGATTGACAGCGTAGAATGAAGG
# DNA 2: CCTTCATTCTACGCTGTCAATCGCGAGCATTGGAGTCAATGACCTTTGGCCCAGTAGGGC
# B8: NRC3_wobSeed97_DR4_C29G_o1 (dsDNA)
# DNA 1: GCCAAACTAGGTCACGAAAGGTCAAAGTGGAATGACGCGATTGACAGCGTAGAATGAAGG
# DNA 2: CCTTCATTCTACGCTGTCAATCGCGTCATTCCACTTTGACCTTTCGTGACCTAGTTTGGC
# B9: NRC3_wobSeed41_DR1_T4A_o1 (dsDNA)
# DNA 1: GCAAATGTAGGTTAAGGGTCATTCAGGTTGGTTCGCGCGATTGACAGCGTAGAATGAAGG
# DNA 2: CCTTCATTCTACGCTGTCAATCGCGCGAACCAACCTGAATGACCCTTAACCTACATTTGC
# B10: NRC3_wobSeed28_DR1_C12G_o1 (dsDNA)
# DNA 1: GCCCTACTGGGGCAAAGGTCATTGATTCCAATGCTCGCGATTGACAGCGTAGAATGAAGG
# DNA 2: CCTTCATTCTACGCTGTCAATCGCGAGCATTGGAATCAATGACCTTTGCCCCAGTAGGGC
# B11: NRC3_wobSeed53_DR2_G9A_o1 (dsDNA)
# DNA 1: GCCCTTACAGGTCACGAGGTTATAGCACGACGAGCGGCGATTGACAGCGTAGAATGAAGG
# DNA 2: CCTTCATTCTACGCTGTCAATCGCCGCTCGTCGTGCTATAACCTCGTGACCTGTAAGGGC
# B12: NRC3_wobSeed66_DR2_A6T_o1 (dsDNA)
# DNA 1: GCAATTCAGGGTCACTAGGCCAGAGTAGGTACGAATGCGATTGACAGCGTAGAATGAAGG
# DNA 2: CCTTCATTCTACGCTGTCAATCGCATTCGTACCTACTCTGGCCTAGTGACCCTGAATTGC
# B13: NRC3_wobSeed121_DR5_A26T_o1 (dsDNA)
# DNA 1: GCCAAACTAGGTCACCGGAAGGTCATAGTCCGCATGGCGATTGACAGCGTAGAATGAAGG
# DNA 2: CCTTCATTCTACGCTGTCAATCGCCATGCGGACTATGACCTTCCGGTGACCTAGTTTGGC
# B14: NRC3_wobSeed77_DR3_A18G_o1 (dsDNA)
# DNA 1: GCACTTACGGGTCAACGGGGTTATAGCACGCGTATAGCGATTGACAGCGTAGAATGAAGG
# DNA 2: CCTTCATTCTACGCTGTCAATCGCTATACGCGTGCTATAACCCCGTTGACCCGTAAGTGC
# B15: NRC3_wobSeed125_DR5_C15G_o1 (dsDNA)
# DNA 1: GCCCTTACGGGTCAGTGACAGGTTATAGCATTTGGAGCGATTGACAGCGTAGAATGAAGG
# DNA 2: CCTTCATTCTACGCTGTCAATCGCTCCAAATGCTATAACCTGTCACTGACCCGTAAGGGC
# B16: NRC3_wobSeed30_DR1_T5C_o1 (dsDNA)
# DNA 1: GCACCAGCAGGCCAAGGGTCACTCAAGATTAGTCCGGCGATTGACAGCGTAGAATGAAGG
# DNA 2: CCTTCATTCTACGCTGTCAATCGCCGGACTAATCTTGAGTGACCCTTGGCCTGCTGGTGC
# B17: NRC3_wobSeed33_DR1_T4G_o1 (dsDNA)
# DNA 1: GCAGCTCTAGGTAAAAGTTCAGTGAATCCCGAGGATGCGATTGACAGCGTAGAATGAAGG
# DNA 2: CCTTCATTCTACGCTGTCAATCGCATCCTCGGGATTCACTGAACTTTTACCTAGAGCTGC
# B18: NRC3_wobSeed64_DR2_G19A_o1 (dsDNA)
# DNA 1: GCTAGCCTAGGTCATTGGACCAGTATAGTACGCATCGCGATTGACAGCGTAGAATGAAGG
# DNA 2: CCTTCATTCTACGCTGTCAATCGCGATGCGTACTATACTGGTCCAATGACCTAGGCTAGC
# B19: NRC3_wobSeed44_DR1_A6C_o1 (dsDNA)
# DNA 1: GCTGACTGAGGTTAAAGATCAGGGAACGTGGCGTCGGCGATTGACAGCGTAGAATGAAGG
# DNA 2: CCTTCATTCTACGCTGTCAATCGCCGACGCCACGTTCCCTGATCTTTAACCTCAGTCAGC
# B20: NRC3_wobSeed65_DR2_A5C_o1 (dsDNA)
# DNA 1: GCATCTGTAGGTTATCGGGTCATTCAGTTTGCGCATGCGATTGACAGCGTAGAATGAAGG
# DNA 2: CCTTCATTCTACGCTGTCAATCGCATGCGCAAACTGAATGACCCGATAACCTACAGATGC
# B21: NRC3_wobSeed76_DR3_A16C_o1 (dsDNA)
# DNA 1: GCCCTACTGGGCCAACAAGGTCATTGATGCCGATAAGCGATTGACAGCGTAGAATGAAGG
# DNA 2: CCTTCATTCTACGCTGTCAATCGCTTATCGGCATCAATGACCTTGTTGGCCCAGTAGGGC
# B22: NRC3_wobSeed120_DR4_G5C_o1 (dsDNA)
# DNA 1: GCCCCAGTAGGTTACGAGGGGGCATTCAGTGCGAATGCGATTGACAGCGTAGAATGAAGG
# DNA 2: CCTTCATTCTACGCTGTCAATCGCATTCGCACTGAATGCCCCCTCGTAACCTACTGGGGC
# B23: NRC3_wobSeed124_DR5_A29T_o1 (dsDNA)
# DNA 1: GCCCTACTGGGCCATTCAGAGGTCATTGTTCATATGGCGATTGACAGCGTAGAATGAAGG
# DNA 2: CCTTCATTCTACGCTGTCAATCGCCATATGAACAATGACCTCTGAATGGCCCAGTAGGGC
# B24: NRC3_wobSeed40_DR1_G16A_o1 (dsDNA)
# DNA 1: GCTAGCCTAGGTCATAGGCCAGTATACCACGCGAACGCGATTGACAGCGTAGAATGAAGG
# DNA 2: CCTTCATTCTACGCTGTCAATCGCGTTCGCGTGGTATACTGGCCTATGACCTAGGCTAGC
# Target: PPARa:RXRa (Homo sapiens, UniProt Q07869;P19793 full;full)
# Assay: no ligand; PBM; 270 nM : 90 nM RXRa; PBS pH 7.4, 2% milk, 0.02% Triton X-100, 1 mM DTT, BSA, 0.4 mg/ml salmon testes DNA
# Conditions: tags: GST kept;His cleaved; copies: 1;1; label: surface-attached array probe
# Procedure, shortened: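 Ligand-free nuclear receptor dimers were applied to custom Agilent 4×180K protein-binding microarrays whose double-stranded probes carried direct-repeat seeds, single-nucleotide variants, half-site ablations and random human genomic background sequences in 34-nt variable regions. Incubation lasted 1 h. Binding z-scores were computed against the random background probes from regression-normalized fluorescence.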
# Chain of PPARa:RXRa (Q07869 whole entry, chain 1 of 2): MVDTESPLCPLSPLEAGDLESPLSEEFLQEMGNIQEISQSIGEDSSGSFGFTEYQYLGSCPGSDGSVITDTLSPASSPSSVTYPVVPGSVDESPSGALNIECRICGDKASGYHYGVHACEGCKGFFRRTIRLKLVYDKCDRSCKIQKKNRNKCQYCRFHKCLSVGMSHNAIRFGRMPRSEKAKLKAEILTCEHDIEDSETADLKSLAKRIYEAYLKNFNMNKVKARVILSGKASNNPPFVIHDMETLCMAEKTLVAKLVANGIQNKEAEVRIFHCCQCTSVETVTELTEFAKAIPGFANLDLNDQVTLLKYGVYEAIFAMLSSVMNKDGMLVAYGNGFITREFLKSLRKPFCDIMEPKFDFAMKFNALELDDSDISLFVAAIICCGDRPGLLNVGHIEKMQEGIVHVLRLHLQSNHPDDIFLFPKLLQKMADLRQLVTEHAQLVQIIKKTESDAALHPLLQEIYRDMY
# Chain of PPARa:RXRa (P19793 whole entry, chain 2 of 2): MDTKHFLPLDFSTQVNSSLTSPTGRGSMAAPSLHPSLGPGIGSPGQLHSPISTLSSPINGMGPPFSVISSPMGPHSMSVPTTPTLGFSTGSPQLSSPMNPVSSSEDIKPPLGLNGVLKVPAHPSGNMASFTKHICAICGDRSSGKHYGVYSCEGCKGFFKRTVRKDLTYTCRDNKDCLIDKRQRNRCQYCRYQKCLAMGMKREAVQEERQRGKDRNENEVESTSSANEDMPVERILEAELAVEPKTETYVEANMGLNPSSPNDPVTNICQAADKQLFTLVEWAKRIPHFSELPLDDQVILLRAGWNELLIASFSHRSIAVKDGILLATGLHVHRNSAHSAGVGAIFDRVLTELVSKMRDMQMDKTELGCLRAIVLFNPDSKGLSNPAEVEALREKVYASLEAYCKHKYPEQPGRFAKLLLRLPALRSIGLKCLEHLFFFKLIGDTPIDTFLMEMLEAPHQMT
row,Binder,binding signal
1,B1,8.27 PBM z-score against 500 random probes
2,B2,8.22 PBM z-score against 500 random probes
3,B3,8.04 PBM z-score against 500 random probes
4,B4,7.28 PBM z-score against 500 random probes
5,B5,7.27 PBM z-score against 500 random probes
6,B6,7.06 PBM z-score against 500 random probes
7,B7,6.99 PBM z-score against 500 random probes
8,B8,6.97 PBM z-score against 500 random probes
9,B9,6.91 PBM z-score against 500 random probes
10,B10,6.86 PBM z-score against 500 random probes
11,B11,6.65 PBM z-score against 500 random probes
12,B12,6.63 PBM z-score against 500 random probes
13,B13,6.6 PBM z-score against 500 random probes
14,B14,6.51 PBM z-score against 500 random probes
15,B15,3.89 PBM z-score against 500 random probes
16,B16,3.87 PBM z-score against 500 random probes
17,B17,3.86 PBM z-score against 500 random probes
18,B18,3.84 PBM z-score against 500 random probes
19,B19,3.82 PBM z-score against 500 random probes
20,B20,3.8 PBM z-score against 500 random probes
21,B21,3.78 PBM z-score against 500 random probes
22,B22,3.76 PBM z-score against 500 random probes
23,B23,3.73 PBM z-score against 500 random probes
24,B24,3.72 PBM z-score against 500 random probes

# Source: publication PMC6555819, “Comprehensive study of nuclear receptor DNA binding provides a revised framework for understanding receptor specificity”
